Assay results from patent US20060115897A1.

Biological target: C3b (UniProt P01024)
Assay: cell-based or functional assay

Chain of C3b (P01024 749-1663 limits assumed, chain 1 of 2): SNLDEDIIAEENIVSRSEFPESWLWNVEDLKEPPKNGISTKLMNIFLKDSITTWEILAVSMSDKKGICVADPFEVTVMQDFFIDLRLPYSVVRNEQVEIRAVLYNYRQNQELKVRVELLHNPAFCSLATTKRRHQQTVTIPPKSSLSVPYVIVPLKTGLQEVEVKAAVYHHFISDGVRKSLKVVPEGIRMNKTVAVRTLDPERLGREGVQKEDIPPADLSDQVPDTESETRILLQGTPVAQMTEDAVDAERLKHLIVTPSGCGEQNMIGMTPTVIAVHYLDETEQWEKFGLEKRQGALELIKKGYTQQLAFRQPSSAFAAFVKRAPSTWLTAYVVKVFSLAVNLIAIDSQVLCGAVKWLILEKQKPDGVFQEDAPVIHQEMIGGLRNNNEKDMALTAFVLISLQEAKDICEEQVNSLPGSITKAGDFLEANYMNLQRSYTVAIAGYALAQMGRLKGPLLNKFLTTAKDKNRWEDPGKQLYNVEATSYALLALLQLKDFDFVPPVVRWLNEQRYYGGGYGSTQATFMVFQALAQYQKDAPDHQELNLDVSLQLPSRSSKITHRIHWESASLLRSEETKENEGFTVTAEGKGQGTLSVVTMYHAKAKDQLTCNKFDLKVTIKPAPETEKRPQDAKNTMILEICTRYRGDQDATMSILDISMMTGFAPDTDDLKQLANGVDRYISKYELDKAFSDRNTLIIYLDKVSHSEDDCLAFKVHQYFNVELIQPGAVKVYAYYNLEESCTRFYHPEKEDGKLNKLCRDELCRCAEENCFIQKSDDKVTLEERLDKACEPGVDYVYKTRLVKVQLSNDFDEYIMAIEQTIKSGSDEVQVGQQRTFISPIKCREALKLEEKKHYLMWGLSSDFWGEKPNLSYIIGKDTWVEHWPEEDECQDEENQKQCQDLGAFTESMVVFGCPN
Chain of C3b (P01024 23-667 limits assumed, chain 2 of 2): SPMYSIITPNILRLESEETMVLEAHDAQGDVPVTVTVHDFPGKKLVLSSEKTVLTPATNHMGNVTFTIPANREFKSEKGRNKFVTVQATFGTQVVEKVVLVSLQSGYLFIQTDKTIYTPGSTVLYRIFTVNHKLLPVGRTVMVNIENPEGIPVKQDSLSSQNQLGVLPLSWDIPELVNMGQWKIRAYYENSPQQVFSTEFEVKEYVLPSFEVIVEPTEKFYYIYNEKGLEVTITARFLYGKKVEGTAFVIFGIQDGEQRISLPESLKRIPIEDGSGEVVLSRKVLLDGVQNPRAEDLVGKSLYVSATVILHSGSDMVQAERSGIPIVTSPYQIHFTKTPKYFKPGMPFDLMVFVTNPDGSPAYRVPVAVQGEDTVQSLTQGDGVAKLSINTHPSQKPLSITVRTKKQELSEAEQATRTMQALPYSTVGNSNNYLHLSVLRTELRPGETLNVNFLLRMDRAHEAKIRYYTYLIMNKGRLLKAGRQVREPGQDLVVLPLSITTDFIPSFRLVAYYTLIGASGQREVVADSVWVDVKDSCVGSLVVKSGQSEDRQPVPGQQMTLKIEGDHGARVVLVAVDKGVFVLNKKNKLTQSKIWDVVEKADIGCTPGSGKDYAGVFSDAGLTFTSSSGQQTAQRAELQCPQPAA

“soluble human CR1 (from UniProt P17927 42-1971) (receptor)” showed a speed as cofactor in the degradation of C3b, against SPICEhis greater than 2 fold.
